Binding ability (percent, flow cytometry) data for one substance are collected here from patent US20240132621A1.

The target of this assay is chitinase-3-like protein-1 (YKL-40) on human ovarian cancer cell CA5171 (human) (UniProt P36222). Kind of assay: flow cytometry on human ovarian cancer cell CA5171.
Sequence of UniProt P36222 (P36222 22-383): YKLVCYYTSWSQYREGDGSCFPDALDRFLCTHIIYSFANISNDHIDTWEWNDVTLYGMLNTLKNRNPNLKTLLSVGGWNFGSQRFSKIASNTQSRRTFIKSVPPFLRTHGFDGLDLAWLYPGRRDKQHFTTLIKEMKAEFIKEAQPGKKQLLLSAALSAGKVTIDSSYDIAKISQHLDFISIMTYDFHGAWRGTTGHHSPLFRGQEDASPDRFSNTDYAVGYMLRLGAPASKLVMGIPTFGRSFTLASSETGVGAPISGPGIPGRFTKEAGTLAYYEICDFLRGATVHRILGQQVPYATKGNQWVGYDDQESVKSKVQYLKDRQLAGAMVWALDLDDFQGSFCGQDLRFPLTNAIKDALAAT

For the substance control group antibody (IgG), the binding ability (percent, flow cytometry) worked out at 28.7%.
